T1: Boi1 SH3 (BOI1_YEAST), P38041
T1 chain: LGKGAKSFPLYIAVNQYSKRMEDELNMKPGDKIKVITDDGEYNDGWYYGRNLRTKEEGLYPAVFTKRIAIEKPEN

T2: Boi2 SH3 (BOI2_YEAST), P39969
T2 chain: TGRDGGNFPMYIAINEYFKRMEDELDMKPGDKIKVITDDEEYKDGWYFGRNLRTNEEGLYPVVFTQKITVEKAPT

T3: Myo5 SH3 (MYO5_YEAST), Q04439
T3 chain: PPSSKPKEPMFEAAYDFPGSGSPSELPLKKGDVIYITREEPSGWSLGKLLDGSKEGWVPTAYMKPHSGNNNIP

T4: Rvs167 SH3 (RV167_YEAST), P39743
T4 chain: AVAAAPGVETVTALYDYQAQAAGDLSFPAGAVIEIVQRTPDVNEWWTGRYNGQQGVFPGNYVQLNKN

T5: Yfr024 SH3 (LSB3_YEAST), P43603
T5 chain: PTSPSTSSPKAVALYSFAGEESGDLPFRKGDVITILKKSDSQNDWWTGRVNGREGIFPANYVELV

T6: Yhr016c SH3 (YSC84_YEAST), P32793
T6 chain: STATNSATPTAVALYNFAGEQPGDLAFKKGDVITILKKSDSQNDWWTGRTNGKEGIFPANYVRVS


Key:
Assay in all cases: SPOT array
[1] = molecular target: T1, Boi1 SH3 (BOI1_YEAST), P38041
[2] = molecular target: T2, Boi2 SH3 (BOI2_YEAST), P39969
[3] = molecular target: T3, Myo5 SH3 (MYO5_YEAST), Q04439
[4] = molecular target: T4, Rvs167 SH3 (RV167_YEAST), P39743
[5] = molecular target: Sho1 SH3 (SHO1_YEAST), P40073
Sho1 SH3 (SHO1_YEAST), P40073, sequence (P40073 295-366): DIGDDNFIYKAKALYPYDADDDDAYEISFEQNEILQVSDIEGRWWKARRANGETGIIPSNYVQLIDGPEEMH

[6] = molecular target: T5, Yfr024 SH3 (LSB3_YEAST), P43603
[7] = molecular target: T6, Yhr016c SH3 (YSC84_YEAST), P32793

Binder | normalised SPOT signal, Boehringer light units (BLU); mean over the file's lines of this peptide [1] | normalised SPOT signal, Boehringer light units (BLU); mean over the file's lines of this peptide [2] | normalised SPOT signal, Boehringer light units (BLU); mean over the file's lines of this peptide [3] | normalised SPOT signal, Boehringer light units (BLU); mean over the file's lines of this peptide [4] | normalised SPOT signal, Boehringer light units (BLU); mean over the file's lines of this peptide [5] | normalised SPOT signal, Boehringer light units (BLU); mean over the file's lines of this peptide [6] | normalised SPOT signal, Boehringer light units (BLU); mean over the file's lines of this peptide [7]
SILNRSVPKRPTID [YAL017W 1333-1346] | 958 | 8.2 | 133 | 28300 | 96.4 | 39200 | 11900
SILRKSSPEEPFMS [YNR023W 296-309] | 132 | 43 | 144 | 162 | 54.4 | 327 | 22.1
SKIPKSIPIIPYVL [YLR328W 26-39] | 151 | 25.9 | 243 | 73.2 | 76.7 | 42.7 | 33.4
SFVTKYLPAAPVGS [YJR019C 24-37] | 27 | 18.9 | 215 | 100 | 2510 | 53.3 | 82.1
SGSGRRYPQTPSYY [YJL095W 698-711] | 593 | 41.3 | 436 | 137 | 168 | 638 | 226
SKNWKLPPRLPHRA [YIR018W 25-38] | 7830 | 29.8 | 5570 | 10200 | 4940 | 39100 | 21900
SKRMKALPKGPAAL [YER164W 1316-1329] | 1730 | 66.1 | 822 | 204 | 6310 | 1540 | 114
SFIRKRAPTPPAPS [YBR108W 721-734] | 3210 | 30.6 | 878 | 250 | 208 | 1500 | 99.6
SKYAKLDPSTPVSL [YNL239W 287-300] | 101 | 39.1 | 457 | 42.2 | 32.6 | 26.4 | 48.5
SETARKVPPIPTQI [YPL249C 247-260] | 73 | 34.5 | 420 | 21500 | 29.9 | 19400 | 8100

Now from value to binder:

normalised SPOT signal, Boehringer light units (BLU); mean over the file's lines of this peptide [1] | normalised SPOT signal, Boehringer light units (BLU); mean over the file's lines of this peptide [2] | normalised SPOT signal, Boehringer light units (BLU); mean over the file's lines of this peptide [3] | normalised SPOT signal, Boehringer light units (BLU); mean over the file's lines of this peptide [4] | normalised SPOT signal, Boehringer light units (BLU); mean over the file's lines of this peptide [5] | normalised SPOT signal, Boehringer light units (BLU); mean over the file's lines of this peptide [6] | normalised SPOT signal, Boehringer light units (BLU); mean over the file's lines of this peptide [7] | Binder
49.7 | 51.3 | 140 | 32.8 | 3.7 | 15.8 | 7.3 | SLGERFMPMAPEVY [YBR017C 618-631]
176 | 22.2 | 369 | 369 | 632 | 448 | 32.6 | SIIPRIFPSTPGTI [YGL233W 770-783]
1170 | 43.6 | 200 | 87.9 | 29500 | 649 | 49.3 | SERRKALPKEPKKL [YIR010W 418-431]
1250 | 35.1 | 5410 | 185 | 167 | 1450 | 123 | SKIKRSRPPPPPMD [YDR239C 144-157]
122 | 9.5 | 72.1 | 12.9 | 0 | 13.5 | 7.1 | SKVNKVAPDHPFIQ [YDR345C 274-287]
170 | 25.6 | 85.4 | 41.8 | 33.4 | 1 | 8.7 | SLIPKIEPAEPTYS [YNL224C 454-467]
